Test results taken from patent US20250009852A1, “DEPLETING EGFR AND HER2 OVERCOMES RESISTANCE TO EGFR INHIBITORS IN COLORECTAL CANCER” (Health Research, Inc., priority 2021, published 2025).

Columns and labels:
[1] = tested on: EGFR^R451C, EGFR^K467T, EGFR^S492R and WT EGFR; experiment: Western blotting of SW620 cells transfected with EGFR or its mutant; format: cell-based, human; conditions: 25 nM for 48 h, extent very similar to WT EGFR
From the text: pGL4.51[luc2/CMV/Neo] was purchased from Promega (Cat #E132A). pCMV6-A-EGFR-puro, reported previously, was used as a template to generate single point mutations of EGFR, including R451C, K467T, and S492R, using the QuikChange Lightning Site-Directed Mutagenesis Kit (Agilent Technologies). The primers were purchased from IDT, including primers for generating EGFR^R451C (forward: 5′-[…]-3 (SEQ ID NO:2); reverse: 5′-[…]-3′ (SEQ ID NO:3), EGFR^K467T(forward: 5-[…]-3′ (SEQ ID NO:4); reverse: 5′-[…]-3′ (SEQ ID NO:5), and EGFR^S492R (forward: 5′-[…]-3′ (SEQ ID NO:6); reverse: 5′-[…]-3′ (SEQ ID NO:7)). All constructs were confirmed by DNA sequence analysis.
Transfection of pCMV6-A-puro-EGFR, pCMV6-A-puro-EGFR^R451C, pCMV6-A-puro-EGFR^K467T or pCMV6-A-puro-EGFR^RS492R was performed using Lipofectamine 3000. SW620 cells were grown in 6-well plates (3×10^5 cells/well with 2 ml medium) for 24 h and then transfected with a plasmid at 1 μg DNA per well for 48 h. […]
Protein concentrations in all samples were measured using the BCA Assay Kit. […] Proteins were transferred to polyvinylidene fluoride membrane, probed with specific antibodies, and detected using either Luminata Classico (Millipore) or Luminata Cresendo (Millipore). […] The beads were washed three times with IP buffer, suspended in 2× SDS loading buffer, boiled for 5 min, and analyzed by Western blotting.

EGFR = experiment: Immunofluorescence staining and confocal microscopy of EGFR trafficking in SW48 cells; format: cell-based, human; conditions: serum-free medium, 25 nM, up to 6 h
Protocol: SW48 cells were grown in chamber slides (4×10^4 cells/well) overnight with or without subsequent treatment with PEPD^G278D (25 nM) and/or chloroquine (25 μM) for up to 6 h. The cells were then washed with ice-cold PBS, fixed with 4% paraformaldehyde for 20 min at room temperature (RT), washed again with ice-cold PBS and blocked with 1% BSA in PBS for 1 h at RT. The cells were then incubated with an EGFR antibody, a His tag antibody for detection of PEPD^G278D, and/or a LAMP1 antibody overnight at 4° C., washed with PBS, incubated with a secondary antibody conjugated to Alexa-Fluor 488 or Alexa-Fluor 647 antibody for 1 h at RT and washed again with PBS. The cells were then examined with a BZ-X700 fluorescence microscope (Keyence) with a S PL FL ELWD ADM 40xC objective. Merged images from Z-stack were organized using the ImageJ software (NIH Image).

[2] = Measurement of plasma PEPD^G278D concentration by ELISA; format: in vivo, mouse; conditions: mice bearing SW48 tumors and HCT116 tumors; 24 h after final PEPD^G278D treatment (4 mg/kg ip with EP)
Protocol: Plasma PEPD^G278D concentration was measured by ELISA as previously reported. Briefly, 96-well ELISA plates were coated with 100 μl/well of a PEPD antibody (mouse monoclonal, against amino acids 101-305, sc-390042) overnight at 4° C. The plates were then washed three times with PBST and incubated with 200 μl/well of a blocking buffer for at least 2 h at RT. The plates were washed again with PBST and incubated with 100 μl/well of a PEPD standard or a sample, which were appropriately diluted, for 2 h at RT. After another round of wash with PBST, each well was incubated with 100 μl of a detection antibody (an anti-PEPD rabbit polyclonal, ab-86507) for 2 h at RT. After another round of wash with PBST, 100 μl of a secondary antibody-HRP conjugate was added to each well, followed by 1 h incubation at RT. The plates were washed again with PBST three times, and each well was then incubated with 100 μl of a HRP substrate solution. After adequate color development, 100 μl of stop solution was added to each well, and absorbance at 450 nm was recorded by a Synergy 2 Multi-Mode Microplate Reader. Purified recombinant PEPD^G278D was used as a standard.

RAS = RAS activity assay (Ras Activation ELISA) in cell lysates; format: cell-based, human; conditions: 25 nM, 48 h
Protocol: Ras activity in cell lysates was measured using a Ras Activation ELISA Kit from Cell Biolabs. Briefly, approximately 5×10^6 cells were mixed with 0.5 ml lysis buffer. Cell lysates were cleared by centrifugation at 14,000 g for 10 min at 4° C., and 250 μl per sample was mixed with 10 μl of 0.5 M EDTA with or without 5 μl of either 100× GTPγS or 100× GDP, which was incubated at 37° C. for 30 min with agitation and then mixed with 33 μl of 1 M MgCl2. The mixture after appropriate dilution was transferred at 100 μl per sample to a well in a 96-well plate immobilized with RAF-1 RAS-binding domain and incubated for 1 h at RT. After washing the wells 5 times with wash buffer, 100 μl of an anti-pan-RAS antibody was added to each well and incubated for 1 h at RT. After another round of wash, 100 μl of a secondary antibody-HRP conjugate was added to each well and incubated for 1 h at RT. After yet another round of wash, 100 μl of substrate solution was added to each well and incubated at RT for 20 min, followed by addition of 100 μl of stop solution to each well. Absorbance at 450 nm in each well was recorded by a Synergy 2 Multi-Mode Microplate Reader.

B1: PEPD^G278D: recombinant and enzymatically inactive mutant of human peptidase D (PEPD), with replacement of glycine 278 by aspartic acid (protein)
chain: AAATGPSFWLGNETLKVPLALFALNRQRLCERLRKNPAVQAGSIVVLQGGEETQRYCTDTGVLFLQESFFHWAFGVTEPGCYGVIDVDTGKSTLFVPRLPASHATWMGKIHSKEHFKEKYAVDDVQYVDEIASVLTSQKPSVLLTLRGVNTDSGSVCREASFDGISKFEVNNTILHPEIVESRVFKTDMELEVLRYTNKISSEAHREVMKAVKVGMKEYGLESLFEHYCYSRGGMRHSSYTCICGSGENSAVLHYGHAGAPNDRTIQNGDMCLFDMDGEYYSVASDITCSFPRNGKFTADQKAVYEAVLLSSRAVMGAMKPGDWWPDIDRLADRIHLEELAHMGILSGSVDAMVQAHLGAVFMPHGLGHFLGIDVHDVGGYPEGVERIDEPGLRSLRTARHLQPGMVLTVEPGIYFIDHLLDEALADPARASFLNREVLQRFRGFGGVRIEEDVVVIDSGIELLTCVPRTVEEIEACMAGCDKAFTPFSGPK
modifications: left off: small tags and cut ends
For B1, the “downregulation (expression and phosphorylation) of each EGFR mutant R451C, K467T, S492R” value [1] was “strongly downregulated”, the “EGFR internalization and lysosomal degradation” value (EGFR) was “induces EGFR internalization and lysosomal degradation” and the “plasma concentrations of PEPD^G278D” value [2] was “high and similar”. The “inhibition of RAS activity” value (RAS; HCT116 cells) was 73%, the “inhibition of RAS activity” value (RAS; HT29 cells) was 75% and the “inhibition of RAS activity” value (RAS; SW48 cells) was 75%.
